Experimental data as given in US6057104.
Blank lines part the entries; values can stand above or below the substance they belong to.

Experiments:
[1] = target: MmRad51, full length, fused to the GAL4 DNA-binding domain (the "bait") (mouse); assay: yeast two-hybrid in HF7c cells, full length MmRad51 bait; relative to the positive control
[2] = target: MmRad51, full length, fused to the GAL4 DNA-binding domain (the "bait") (mouse); assay: yeast two-hybrid in HF7c cells, full length MmRad51 bait; relative to full length MmRad51 prey as 100%
[3] = target: MmRad51, full length, fused to the GAL4 DNA-binding domain (the "bait") (mouse); assay: yeast two-hybrid in HF7c cells, full length MmRad51 bait, X-gal staining
[4] = target: mammalian Rad51 (MmRad51), wild-type protein of the cells (mouse)
[5] = target: MmRad51, full length, fused to the GAL4 DNA-binding domain (the "bait") (mouse); assay: yeast two-hybrid in HF7c cells, full length MmRad51 bait; the reference of the scale
[6] = target: MmRad51, full length, fused to the GAL4 DNA-binding domain (the "bait") (mouse); assay: yeast two-hybrid against full length MmRad51

Substance: MmRad51 deletion TR1-131, as two-hybrid prey
relative β-galactosidase activity [1]: 11%

Substance: MmRad51 deletion TR131-339, as two-hybrid prey
relative β-galactosidase activity [2]: 1

Substance: MmRad51 deletion TR1-93, as two-hybrid prey
relative β-galactosidase activity [2]: 4%
time until yeast cells stained blue [3]: 30 min

Substance: rad51K-A134 product, as tested in the yeast two-hybrid system
relative β-galactosidase activity [6]: 90%

Other lines, results leading:

relative β-galactosidase activity [2]: 43%
time until yeast cells stained blue [3]: < 5 min
Substance: MmRad51 deletion TR1-43, as two-hybrid prey

relative targeting frequency (TG^r +G418^r /G418^r colonies) at HPRT in ES cells, IVH-tk as 100% [4]: 54%
Substance: altered Rad51 product encoded by rad51K-A134, expressed in ES cells

relative β-galactosidase activity [2]: 1
Substance: MmRad51 deletion TR43-339, as two-hybrid prey

relative β-galactosidase activity [5]: 100%
Substance: MmRad51, full length, as two-hybrid prey

relative β-galactosidase activity [1]: 9%
Substance: MmRad51 deletion TR1-175, as two-hybrid prey
